Earlier results as cited in paper PMC7289715.

Molecular target: Spike protein (SARS-CoV-2) (UniProt P0DTC2)

With CD147 (from UniProt P35613) as the substance, how does the Kd read?
Its Kd is 185 nM.
